From US20120214741A1

Target: native mVDAC1-GFP (mouse) (UniProt Q60932)
Assay: cell-based or functional assay

Chain of native mVDAC1-GFP (mouse) (Q60932 14-296): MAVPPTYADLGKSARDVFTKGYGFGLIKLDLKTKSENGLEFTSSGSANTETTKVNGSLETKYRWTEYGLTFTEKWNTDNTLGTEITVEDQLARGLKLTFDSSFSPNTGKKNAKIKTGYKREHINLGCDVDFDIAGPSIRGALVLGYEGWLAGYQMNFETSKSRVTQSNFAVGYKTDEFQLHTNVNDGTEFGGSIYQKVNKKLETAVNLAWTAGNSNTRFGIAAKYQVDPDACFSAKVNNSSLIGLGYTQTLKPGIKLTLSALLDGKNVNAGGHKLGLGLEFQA

recombinant HK-I over-expressed in cells (pcDNA3.1-HisA-HK-I) (enzyme)
apoptotic cell death of cells over-expressing HK-I and mVDAC1-GFP: < 10%
